Here are results for 5 molecules from patent US20230220104A1 (BRIGHTPATH BIOTHERAPEUTICS, published 2023).

Experiment [1] has as its target T1, human CD73 antigen (Biacore analyte) (human, UniProt P21589 27-547, limits assumed).
T1 sequence (looked up): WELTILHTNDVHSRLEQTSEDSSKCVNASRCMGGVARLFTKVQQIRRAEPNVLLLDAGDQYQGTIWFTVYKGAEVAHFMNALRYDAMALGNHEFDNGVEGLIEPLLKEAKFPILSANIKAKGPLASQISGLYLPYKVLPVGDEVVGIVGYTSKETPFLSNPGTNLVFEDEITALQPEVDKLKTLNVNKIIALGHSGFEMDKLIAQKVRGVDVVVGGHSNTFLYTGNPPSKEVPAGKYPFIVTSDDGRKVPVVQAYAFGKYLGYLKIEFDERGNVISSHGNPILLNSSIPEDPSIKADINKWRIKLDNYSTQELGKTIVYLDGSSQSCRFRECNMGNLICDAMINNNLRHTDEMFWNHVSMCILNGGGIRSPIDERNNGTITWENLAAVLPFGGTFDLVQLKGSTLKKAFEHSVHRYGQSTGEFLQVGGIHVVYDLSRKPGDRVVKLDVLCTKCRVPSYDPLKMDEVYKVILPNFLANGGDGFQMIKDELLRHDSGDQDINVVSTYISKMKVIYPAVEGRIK
The experiment can be described thus: SPR, Biacore 8K, antibody captured on CM5 chip, CD73 as analyte, multicycle kinetics, 1:1 model.

Experiment [2] has as its target T2, cynomolgus CD73 (Biacore analyte) (cynomolgus, UniProt A0A2K5V5U7 27-547).
T2 sequence: T1 sequence (looked up) with M199T, T350A, V466I
The experiment is described as above.

Experiment [3] concerns the target T3, human CD73 on cells (H322, MDA-MB-231, HT-144, T cells, CD73-transfected HEK293T) (human, UniProt P21589 27-549).
T3 sequence (looked up): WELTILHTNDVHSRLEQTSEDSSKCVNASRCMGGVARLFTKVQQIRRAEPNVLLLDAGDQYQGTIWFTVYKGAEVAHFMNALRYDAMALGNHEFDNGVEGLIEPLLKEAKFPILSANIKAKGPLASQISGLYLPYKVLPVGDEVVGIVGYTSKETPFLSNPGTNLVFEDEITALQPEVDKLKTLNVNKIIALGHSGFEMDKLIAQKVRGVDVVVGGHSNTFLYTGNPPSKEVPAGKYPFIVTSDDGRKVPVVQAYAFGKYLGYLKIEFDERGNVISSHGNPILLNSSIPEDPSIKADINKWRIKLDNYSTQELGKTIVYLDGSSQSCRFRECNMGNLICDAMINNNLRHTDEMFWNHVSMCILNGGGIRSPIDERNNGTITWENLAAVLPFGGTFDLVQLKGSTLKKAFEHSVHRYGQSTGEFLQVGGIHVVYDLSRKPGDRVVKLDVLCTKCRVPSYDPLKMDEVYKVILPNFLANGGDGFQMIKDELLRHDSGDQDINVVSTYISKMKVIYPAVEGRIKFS
Kind of experiment: cell-based or functional assay.

Experiment [4] addresses T3, human CD73 on cells (H322, MDA-MB-231, …). The experiment can be described thus: cell-based or functional assay. The source holds these as a separate data set.
The target is the same in experiment [5]. Kind of experiment: flow cytometry on MDA-MB-231 cells (endogenous CD73), fluorescently labeled secondary antibody, PE channel.
For experiment [6] the target is unchanged. The experiment can be described thus: flow cytometry on H322 cells (endogenous CD73), fluorescently labeled secondary antibody, PE channel.
For experiment [7] the target is unchanged. Kind of experiment: cell-based or functional assay. The source holds these as a separate data set.

Where a chain is given by its changes, count along the chain named. Read-outs that look alike come from different tables or passages of the source.

B1: 006_hKB antibody (antibody, V domains shown)
VH: QVQLLQSGAEVKKPGESVKISCKASGYTFTSYWMHWVKQRPGQGLEWIGEINPSNARTNYNENFKSRFTITVDKSTSTAYMQFSRLRSDDTAVYYCARRGTSGNYFDFWGQGTMLTVSS
VL: DIQMTQSPSSLSASLGQRVTITCKASQDINTYLSWFQQKPGKPPKTLIYRANRLVDGVPSRFSGSGSGEDYSLTISSLQSEDFGVYYCLQYDEFPYTFGPGTRLEIK
notes: Humanized antibody based on 006_m
In general, Kd refers to the free concentration of one partner at which half of the binding sites on the other are occupied at equilibrium, for simple one-to-one binding. Low values mean a tighter complex, high ones a looser complex. Consider B1, for which the dissociation constant Kd in experiment [1] was found to be 0.426 nM; in experiment [2], 0.457 nM.

B2: 002_6_h4 antibody (antibody, V domains shown)
VH: QVQMKQSAAEVRKPGASVKVSCKASGYTFTDSNMDWVRQAPGQGLEWMGDINPNNGGTIYNQKFKGRVTMTIDTSRSTAYMELRSLRSDDTAVYYCARTNWDYAMDYWGQGTTVTVSS
VL: DIQMTQSPSFLSASVGDRVTITCKASQDINSQLSWYQQKPGKAPKTLIYRANRLIDGVPSRFSGSGSGTDFTLTISSLQYEDMATYYCLQYDVFPRTFGGGTKLEIK
notes: Humanized antibody of 002_6_c; also called humanized anti-CD73 antibody 002_6_h4; lead antibody
For B2, the “IC50 of AMP degradation suppressive function, MDA-MB-231 cells” value in experiment [3] is 0.032 µg/mL. In addition, the “IC50 of AMP degradation suppressive function, H322 cells” value in experiment [4] stood at 0.069 µg/mL. For the same molecule, the Kd is 0.204 nM in experiment [1] and 0.273 nM in experiment [2].

B3: 009_m antibody (antibody, V domains shown)
VH: QVQLQQSGAELVRPGASVKLSCKASGYTFTSYWMNWVKQRPEPGLEWIGRIDPYDSEAHYNQKFKDKAILTVDKSSSTAYMQLSSLTSEDSAVYYCTRIRYGTFDYWGQGTTLTVSS
VL: DIVLTQSPSSMYASLGERVTITCKASQDINSYLSWFQQKPGKSPKTLIYRSNSLVDGVPSRFSGSGSGQDYSLTISSLEYEDMGSYYCLQYDEFPYTFGGGTRLEIKR
notes: Mouse antibody expressed recombinantly in CHO cells
With B3, in experiment [5], the binding result is “binds”.

B4: 005_m antibody (antibody, V domains shown)
VH: DVQLVESGPGLVAPSQSLSITCTVSGFSLTSYGVSWVRQPPGKGLEWLGVIWGDGSTNYHSALISRLSISKDNSKSQVFLKLNSLQTDDTATYYCAKTNIFYDYDWYLDVWGAGTTVTVSS
VL: DIVMTQAPLSLPVSLGDQASISCRSSQSLVHSNGNTYLHWYLQKPGQSPKLLIYKVSNRFSGVPDRFSGSGSGTDFTLKISRVEAEDLGVYFCSHSTHVPWTFGGGTKLELK
notes: as for B3
B4: in experiment [6], the binding result is recorded as “binds”.

B5: 002_m antibody (antibody, V domains shown)
VH: QVQMKQSGPELVKPGASVKIPCKASGYTFTDCNMDWVKQSHGESLEWIGDINPNNGGTIYNQKFKGKVTLTIDKSSSTAYMELRSLTSEDTAVYYCARTNWDYAMDYWGQGTSVTVSS
VL: DIQMTQSPSSMYASLGERVTITCKASQDINSNLSWFQQKPGKSPKTLIYRANRLIDGVPSRFSGSGSGQDYSLTISSLEYEDMGIYYCLQYDVFPRTFGGGTKLELK
For the molecule B5, the “IC50 of AMP degradation suppressive function, H322 cells” value in experiment [7] is 0.089 µg/mL.
